Measurements: US20220332804A1 (CSL INNOVATION, published 2022)

Legend:
Experiment in all cases: SPR, antibody captured, C2 as analyte;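 also: biacore SPR at 37 °C, anti-C2 mAbs captured via goat anti-human IgG on CM5 chips, double-referenced sensorgrams fit to a 1:1 kinetic or steady-state model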
human C2 E275A = target: T1, human C2 E275A (human, UniProt P06681 21-752)
T1 sequence: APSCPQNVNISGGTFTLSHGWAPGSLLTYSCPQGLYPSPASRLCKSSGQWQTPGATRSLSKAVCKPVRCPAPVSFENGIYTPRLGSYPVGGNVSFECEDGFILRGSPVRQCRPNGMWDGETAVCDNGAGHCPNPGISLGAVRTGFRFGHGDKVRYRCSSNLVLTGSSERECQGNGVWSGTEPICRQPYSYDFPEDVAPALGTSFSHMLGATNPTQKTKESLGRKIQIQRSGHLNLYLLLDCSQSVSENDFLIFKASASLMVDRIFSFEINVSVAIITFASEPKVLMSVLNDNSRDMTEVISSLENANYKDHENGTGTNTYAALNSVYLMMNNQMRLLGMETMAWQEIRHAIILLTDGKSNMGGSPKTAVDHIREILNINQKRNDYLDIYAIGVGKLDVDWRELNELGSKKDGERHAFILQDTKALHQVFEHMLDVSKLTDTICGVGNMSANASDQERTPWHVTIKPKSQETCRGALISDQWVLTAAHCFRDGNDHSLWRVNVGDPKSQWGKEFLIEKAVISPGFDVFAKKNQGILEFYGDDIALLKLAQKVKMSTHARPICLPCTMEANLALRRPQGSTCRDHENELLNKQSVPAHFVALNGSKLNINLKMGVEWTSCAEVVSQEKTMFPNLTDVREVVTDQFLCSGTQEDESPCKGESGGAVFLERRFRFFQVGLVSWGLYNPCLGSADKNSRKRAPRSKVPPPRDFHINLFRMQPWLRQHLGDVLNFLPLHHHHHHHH

human C2 S708A = target: T2, human C2 S708A (human, UniProt P06681 21-752)
T2 sequence: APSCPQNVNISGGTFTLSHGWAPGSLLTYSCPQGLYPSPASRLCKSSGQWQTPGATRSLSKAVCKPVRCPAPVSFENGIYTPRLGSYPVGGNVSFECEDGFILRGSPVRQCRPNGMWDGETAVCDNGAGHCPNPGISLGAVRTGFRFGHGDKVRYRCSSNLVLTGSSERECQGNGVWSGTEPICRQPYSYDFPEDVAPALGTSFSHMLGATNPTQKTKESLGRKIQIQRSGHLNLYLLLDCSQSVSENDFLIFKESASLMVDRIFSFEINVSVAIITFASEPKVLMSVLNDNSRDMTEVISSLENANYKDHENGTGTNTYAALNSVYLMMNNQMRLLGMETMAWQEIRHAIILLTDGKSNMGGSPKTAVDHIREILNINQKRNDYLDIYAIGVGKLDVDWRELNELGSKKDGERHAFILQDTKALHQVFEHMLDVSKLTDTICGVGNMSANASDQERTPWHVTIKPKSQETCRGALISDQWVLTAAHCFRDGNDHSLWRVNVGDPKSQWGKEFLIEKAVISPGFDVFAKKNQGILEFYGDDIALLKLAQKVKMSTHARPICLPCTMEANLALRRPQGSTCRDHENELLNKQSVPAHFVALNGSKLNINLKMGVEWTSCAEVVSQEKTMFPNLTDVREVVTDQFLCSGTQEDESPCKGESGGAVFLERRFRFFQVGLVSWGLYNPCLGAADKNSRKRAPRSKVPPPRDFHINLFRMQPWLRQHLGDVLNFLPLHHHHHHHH

human C2 K487A = target: T3, human C2 K487A (human, UniProt P06681 21-752)
T3 sequence: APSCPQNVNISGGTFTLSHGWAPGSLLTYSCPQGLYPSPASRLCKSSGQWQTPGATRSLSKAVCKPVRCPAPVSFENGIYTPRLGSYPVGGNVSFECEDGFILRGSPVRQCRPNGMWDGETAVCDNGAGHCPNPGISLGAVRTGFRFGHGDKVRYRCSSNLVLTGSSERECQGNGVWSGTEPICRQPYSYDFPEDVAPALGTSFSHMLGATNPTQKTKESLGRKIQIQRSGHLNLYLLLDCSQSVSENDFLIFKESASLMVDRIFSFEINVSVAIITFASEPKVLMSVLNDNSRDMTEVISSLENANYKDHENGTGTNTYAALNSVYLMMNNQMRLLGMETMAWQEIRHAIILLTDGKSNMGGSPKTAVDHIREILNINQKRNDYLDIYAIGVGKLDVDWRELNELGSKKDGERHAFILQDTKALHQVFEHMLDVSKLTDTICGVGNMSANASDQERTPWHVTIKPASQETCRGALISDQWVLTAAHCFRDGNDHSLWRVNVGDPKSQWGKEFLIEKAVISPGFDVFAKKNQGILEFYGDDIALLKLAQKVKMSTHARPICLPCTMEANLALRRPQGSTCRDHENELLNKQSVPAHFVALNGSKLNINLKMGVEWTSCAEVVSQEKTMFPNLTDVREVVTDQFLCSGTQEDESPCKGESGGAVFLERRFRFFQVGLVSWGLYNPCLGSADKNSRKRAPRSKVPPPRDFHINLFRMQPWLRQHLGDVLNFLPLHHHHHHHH

human C2 D561A = target: T4, human C2 D561A (human, UniProt P06681 21-752)
T4 sequence: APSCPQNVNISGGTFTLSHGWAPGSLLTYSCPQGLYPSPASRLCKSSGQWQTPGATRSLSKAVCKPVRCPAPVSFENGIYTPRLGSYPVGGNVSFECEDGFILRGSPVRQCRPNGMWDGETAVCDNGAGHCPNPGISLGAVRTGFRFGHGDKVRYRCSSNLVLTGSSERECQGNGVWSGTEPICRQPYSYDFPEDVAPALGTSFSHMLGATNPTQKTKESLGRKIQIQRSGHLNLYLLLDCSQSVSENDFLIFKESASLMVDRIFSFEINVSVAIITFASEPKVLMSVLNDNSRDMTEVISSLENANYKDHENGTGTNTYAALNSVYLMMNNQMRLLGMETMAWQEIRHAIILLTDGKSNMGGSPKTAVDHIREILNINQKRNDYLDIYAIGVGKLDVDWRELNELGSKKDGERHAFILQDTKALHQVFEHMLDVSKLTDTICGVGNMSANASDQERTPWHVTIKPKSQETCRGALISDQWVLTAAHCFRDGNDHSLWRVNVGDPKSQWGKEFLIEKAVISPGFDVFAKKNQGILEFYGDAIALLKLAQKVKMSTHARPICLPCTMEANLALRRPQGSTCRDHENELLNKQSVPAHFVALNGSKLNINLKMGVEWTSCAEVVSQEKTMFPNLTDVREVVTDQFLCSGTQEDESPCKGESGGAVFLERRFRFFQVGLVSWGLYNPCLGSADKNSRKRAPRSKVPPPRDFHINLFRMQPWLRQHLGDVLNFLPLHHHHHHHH

B1: RF16-226 (antibody, human IgG4 S228P, lambda)
heavy: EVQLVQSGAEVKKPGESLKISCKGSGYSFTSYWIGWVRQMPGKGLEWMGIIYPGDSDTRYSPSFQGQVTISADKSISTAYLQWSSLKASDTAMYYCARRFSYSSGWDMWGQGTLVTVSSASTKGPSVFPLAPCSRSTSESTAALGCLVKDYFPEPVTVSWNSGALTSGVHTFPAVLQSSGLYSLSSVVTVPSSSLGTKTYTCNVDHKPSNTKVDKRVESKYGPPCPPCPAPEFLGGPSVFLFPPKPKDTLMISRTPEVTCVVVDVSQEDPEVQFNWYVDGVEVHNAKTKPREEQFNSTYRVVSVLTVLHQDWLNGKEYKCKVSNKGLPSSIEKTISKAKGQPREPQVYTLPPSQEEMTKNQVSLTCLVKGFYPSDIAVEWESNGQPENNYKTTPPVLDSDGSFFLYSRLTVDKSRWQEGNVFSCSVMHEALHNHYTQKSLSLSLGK
light: SYELTQPPSVSVSPGQTARITCSGDALTSKYVAWYQQKSGLAPLLVIYEDTRRPSGIPAKFSGSSSGSVATLTISGAHGDDEADYYCYSTDASGHQRVFGGGTKLTVLSQPKAAPSVTLFPPSSEELQANKATLVCLISDFYPGAVTVAWKADGSPVKAGVETTKPSKQSNNKYAASSYLSLTPEQWKSHRSYSCQVTHEGSTVEKTVAPTECS
notes: pH-dependent anti-C2 antibody from a phage display library; also called WT
Binder B1 has a Kd (human C2 E275A) of 9.4 nM, a Kd (human C2 S708A) of 21.1 nM and a Kd (human C2 K487A) of 93 nM. For the same binder, the Kd (human C2 D561A) was 102 nM.
